These results are taken from patent US20240240189A1, “CANCER TREATMENT BY TARGETING PROTEINS OR INTERACTIONS OF EPHRINB-RGS3-KIF20A-SEPT7 AXIS” (CITY OF HOPE, priority 2021, published 2024).

Series [1] has as its system human KIF20A transcript. Nature of the series: shRNA screening by dual luciferase reporter assay. To be noted: transfected HEK293 cells, shRNA in pNUT vector, cDNA target in psi-CHECK, 48 hours. Type of series: cell-based. How it is done: FIGS. 10a-10c show generation of human KIF20A shRNAs and stable Daoy cell lines. […] Candidate shRNAs in pNUT vector were first screened with a cDNA target cloned in psi-CHECK vector in transfected HEK293 cells, using a dual luciferase reporter assay and their cDNA target in psi-CHECK Vector (Promega). Six candidate shKIF20As were tested with this assay. […] Data are mean±S.D. **P<0.01, ***P<0.001 (two-way ANOVA).
DNA Constructs, Lentivirus Production: Lentiviral transfer plasmids used in this study include: Hiv7CMV-Cre-myc-2A-GFP (Addgene #117148), Hiv7CMV-GFP, Hiv7CMV-GFP-IRES-Luciferase, as well as Tet-on inducible shRNA plasmids Tet-pLKO-hushKIF20A726 or Tet-pLKO-hushKIF20A181-Puro (shRNA sequences were cloned into pLKO-Tet-On plasmid, Addgene #21915 at Agel/EcoRI sites). […]
shRNA design and screening: Potential shRNA sequences were selected using web-based design tool (rnaidesigner.thermofisher.com/rnaiexpress/design.do). shRNAs were expressed under the control of a mouse U6 promoter in pNUTs vector which additionally contains a ubiquitin promoter-EGFP expression cassette. Candidate shRNAs in pNUTs and cDNA target in psi-CHECK were co-transfected into HEK293 cells in triplicates; 48 hours later, the firefly and Renilla Luciferase values were determined with Promega's Dual-Luciferase® Reporter Assay System (Promega, E1910). […]
(A reporter such as luciferase makes a cellular process visible.)

Series [2] concerns Daoy human MB cells. As to the kind of experiment: Growth assay of Daoy cells. Type of series: cell-based. To be noted: parental Daoy cells with or without doxycycline. How it is done: Generation of Daoy cell lines with stably integrated Tet-on inducible shRNA expression system: Daoy cells were infected with lentivirus of Tet-on inducible human KIF20A shRNA-726 and GFP-Luciferase prepared from Tet-pLKO-hushKIF20A726 plasmid and Hiv7CMVGFP-IRES-Luciferase plasmid, respectively. The transduced Daoy cells were selected for stable single clones with Puromycin (1 μg/ml, Sigma-Aldrich) and GFP fluorescence signal in DMEM (Invitrogen) with 10% fetal bovine serum. Single clones were picked up by glass cloning cylinders (Sigma-Aldrich) in 10 cm plate.
Growth Assay of tumor cells: Mouse MB cell lines, or Daoy clones stably integrated with Tet-on inducible human KIF20A shRNA-726, or Wild Type Daoy cells, were seeded into multiple wells of 24 well plates (2×10^4 or 1×10^4 cells per well). Cells in quadruplicate were then dissociated and counted using a hemocytometer at consecutive days after initial plating.

Series [3] has as its system GISC017 cells. Nature of the series: Cell cycle exit analysis (EdU/Ki67) in GISC017 cells. To be noted: lentiviral expression of RBD. Type of series: cell-based, human. The source says: To further investigate the relevance of KIF20A in human brain tumors, inhibition of KIF20A in patient-derived GBM-initiating/stem cells (GISCs) was examined. As the ERKS axis functions in different types of brain tumor-initiating/stem cells, data obtained from study of GISCs would be applicable to other brain tumor cell types. Multiple lines of patient-derived GISCs were obtained from Dr. Christine Brown. These low passaged GISCs could be expanded in cultures and could engraft in NSG mice^43, 44. FIG. 11 summarizes the results of testing KIF20A in one GISC line (GISC017) by constitutive expression of a control scrambled shRNA or shKIF20A726 (shRNA targeting hKIF20A) in pNUT vector-based lentiviral expression system. […] In the above cell cycle exit analysis, co-staining of differentiation markers (e.g. βlll-tubulin, DCX, or NeuN) was performed, however, these markers were detected in EdU^+Ki67^− (cells having left the cell cycle) but also in some EdU^+Ki67^+ (cells staying in the cell cycle) cells, which might reflect a technical artefact observed with progenitor/stem cells in culture. […]

For series [4], the target named is T1, RGS3-KIF20A interaction (Mus musculus, UniProt Q9DC04).
T1 construct: mediated by the RGS domain of RGS3
T1 sequence (Q9DC04 841-966 limits assumed): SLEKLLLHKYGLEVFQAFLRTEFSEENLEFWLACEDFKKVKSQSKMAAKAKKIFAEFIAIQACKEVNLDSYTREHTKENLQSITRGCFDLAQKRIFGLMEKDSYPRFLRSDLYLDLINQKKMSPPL
As to the kind of experiment: GST-RGS pulldown experiment. Type of series: binding. To be noted: expression of RBD, GST-RGS pull down.

Series [5] has as its system neural progenitor cells (NPCs). As to the kind of experiment: In utero electroporation over-expression in the mouse cortex. Type of series: in vivo. The following applies: expression plasmid delivered at E13.5 via IUE, brains collected at E15.5. The text has this: Expression plasmid of GFP, RBD (RGS-binding domain of mouse KIF20A), or RGS was delivered into the cortices at E13.5 via in utero electroporation (IUE). Brains were collected at E15.5 for analyses. Distribution of transfected cells (GFP+) across the radial domains were scored. […] VZ, ventricular zone; IZ, intermediate zone; CP, cortical plate. Green and blue asterisks indicate P<0.01 (Student's t-test) for CP and SVZ/VZ distributions, respectively.
RGS3-KIF20A interaction is mediated by the RGS domain of RGS3 and the RGS-binding domain (RBD) of KIF20A which is located to amino acids 625-818 of mouse KIF20A sequence (FIG. 13a)^9. […] In this experiment, expression plasmid of GFP, RBD (RGS-binding domain of KIF20A), or RGS was delivered into the cortices at E13.5 via IUE. Brains were collected at E15.5 for analyses. Distribution of transfected cells (GFP+) across the radial domains were scored.

Series [6] addresses T2, SEPT7 (Mus musculus, UniProt O55131).
T2 sequence (O55131 1-436): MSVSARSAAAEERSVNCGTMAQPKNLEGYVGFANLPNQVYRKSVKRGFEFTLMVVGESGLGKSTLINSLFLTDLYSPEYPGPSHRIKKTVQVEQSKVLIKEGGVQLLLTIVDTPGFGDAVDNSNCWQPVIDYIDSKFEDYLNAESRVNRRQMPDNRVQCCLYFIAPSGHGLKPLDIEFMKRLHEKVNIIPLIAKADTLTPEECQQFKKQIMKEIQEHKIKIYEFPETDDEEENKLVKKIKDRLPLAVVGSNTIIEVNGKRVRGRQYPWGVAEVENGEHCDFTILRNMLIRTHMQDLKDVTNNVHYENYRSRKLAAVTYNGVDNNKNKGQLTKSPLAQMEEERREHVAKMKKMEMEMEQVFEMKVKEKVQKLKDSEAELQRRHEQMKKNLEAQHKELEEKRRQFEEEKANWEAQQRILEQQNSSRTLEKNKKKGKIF
The following applies: cited from earlier work.

Entries after “also recorded” stand apart in the source; their conditions may differ.

On to “5′-AGTATGGAGAAGGTGAAAG-TTCAAGAGA-CTTTCACCTTCTCCATACT-3′ (AGTATGGAGAAGGTGAAAGTTCAAGAGACTTTCACCTTCTCCATACT; expressed or natural sequence) [shKIF20A181, shRNA targeting human KIF20A transcript]”, for which, in series [1], the “inhibition of expression of the human KIF20A transcript (luciferase assay)” value is “significantly inhibit expression of the human KIF20A transcript”.

Regarding `C[C@H]1c2cccc(O)c2C(=O)C2=C(O)[C@]3(O)C(=O)C(C(N)=O)=C(O)[C@@H](N(C)C)[C@@H]3[C@@H](O)[C@@H]21` [doxycycline, reference compound], in series [2], the “growth of parental Daoy cells (cytotoxicity of doxycycline)” value is “not affected”.

B1: RBD: RGS-binding domain of KIF20A, amino acids 625-818 of mouse KIF20A sequence; competitive inhibitor for RGS3-KIF20A interaction (protein)
chain: LKILKESLTTFYQEQIQERDEKIEELETLLQEAKQQPAAQQSGGLSLLRRSQRLAASASTQQFQEVKAELEQCKTELSSTTAELHKYQQVLKPPPPAKPFTIDVDKKLEEGQKNIRLLRTELQKLGQSLQSAERACCHSTGAGKLRQALTNCDDILIKQNQTLAELQNNMVLVKLDLQKKAACIAEQYHTVLKL
modifications: left off: small tags and cut ends
On to B1, for which, in series [3], the cell cycle exit result is recorded as “induce cell cycle exit; also recorded: caused cell cycle exit”. The “inhibition of binding of GST-RGS and KIF20A” value was “inhibited binding between RGS3 and mouse KIF20A” in series [4]; “inhibited binding of GST-RGS and KIF20A in a dose dependent manner” in series [4] (listed as Flag-RBD); “block interaction between KIF20A and RGS3” in series [4] (listed as KIF20A625-818). The “neuronal differentiation of neural progenitor cells” value was “caused precocious neuronal differentiation of the affected NPCs; also recorded: caused neural progenitor cell differentiation and subsequent outward migration of newly born neurons into the IZ and CP regions” in series [5]; “cause neuronal differentiation” in series [5] (listed as KIF20A625-818). Besides, the “interaction with SEPT7” value in series [6] is on record as “interacts with SEPT7”.
